Measurements as given in article PMC5992219, “HuR regulates telomerase activity through TERC methylation”.

Assays:
[1] = test system: HuR (HeLa lysate) (human (HeLa)); test: pull-down; conditions: biotin-UTP, ITC: 10 mM Tris pH 8.0, 100 mM NaCl, 25 C, UV-crosslinking EMSA: 50 mM Tris pH 7.0, 150 mM NaCl, 0.25 mg/ml tRNA, 0.025 mg/ml BSA, pull-down: 1 ug RNA …
[2] = target: HuR (ITC, SUMO tag removed) (UniProt Q15717 1-326); test: ITC; ITC: 10 mM Tris pH 8.0, 100 mM NaCl, 25 C; UV-crosslinking EMSA: 50 mM Tris pH 7.0, 150 mM NaCl, 0.25 mg/ml tRNA, 0.025 mg/ml BSA, 25 C; pull-down: 1 ug RNA, 100 ug cytoplasmic extract, room temperature, 30 min; conditions: protein: recombinant; tags: N-terminal 6xHis-SUMO removed by Ulp1
Sequence of HuR (ITC, SUMO tag removed) (Q15717 whole entry): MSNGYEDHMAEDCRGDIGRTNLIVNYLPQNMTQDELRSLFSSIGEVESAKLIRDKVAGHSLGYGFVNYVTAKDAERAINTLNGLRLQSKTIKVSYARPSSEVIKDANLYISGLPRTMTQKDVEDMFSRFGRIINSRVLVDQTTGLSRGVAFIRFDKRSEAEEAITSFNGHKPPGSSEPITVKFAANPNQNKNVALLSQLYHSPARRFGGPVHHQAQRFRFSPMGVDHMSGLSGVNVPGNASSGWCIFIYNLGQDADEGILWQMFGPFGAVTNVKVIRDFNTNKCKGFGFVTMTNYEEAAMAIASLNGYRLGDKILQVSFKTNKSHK

Molecule	binding signal (% reduction vs WT) [1]	Kd [2] [nM]	further results
TERC U40A	70.7	–	–
TERC U100A	70.4	–	–
CUAGACUAGGACUC (ssRNA) [ITC negative control RNA]	–	–	binding result [2]: no binding
GUUUUUCUCG (ssRNA) [TERC 98-107 oligo (GUUUUUC motif)]	–	~70.4	–
AUUUUUUGUCU (ssRNA) [TERC 37-47 oligo (UUUUUU motif)]	–	~24.3	–
